{"source": "patent US20140017212", "assay_in_all_cases": "cell_activity", "key": {"[1]": {"system": "ZFN SBS34931", "details": "HepG2-C3a, paired with 33940"}, "[2]": {"system": "TALEN 102256"}, "[3]": {"system": "TALEN 102255"}, "[4]": {"system": "TALEN 102265"}, "[5]": {"system": "TALEN 102266", "details": "C17, with 102268, HepG2-C3a"}, "[6]": {"system": "TALEN 102252"}, "[7]": {"system": "TALEN 102268"}, "[8]": {"system": "TALEN 102267"}, "[9]": {"system": "TALEN 102264", "details": "C63, with 102261, HepG2-C3a"}, "[10]": {"system": "TALEN 102253"}, "[11]": {"system": "TALEN 102254"}, "[12]": {"system": "TALEN 102259"}, "[13]": {"system": "TALEN 102262", "details": "C63, with 102264, HepG2-C3a"}, "[14]": {"system": "ZFN SBS35393", "details": "Cel-I, paired with 35370"}, "[15]": {"system": "ZFN SBS35394", "details": "Cel-I, paired with 35364"}, "[16]": {"system": "ZFN SBS35396", "details": "Cel-I, paired with 35361; 31 and 29% in HepG2-C3a (Table 10)"}, "[17]": {"system": "ZFN SBS35398", "details": "Cel-I, paired with 35361"}, "[18]": {"system": "ZFN SBS35399", "details": "Cel-I, paired with 35361"}, "[19]": {"system": "ZFN SBS35405", "details": "Cel-I, paired with 35370"}, "[20]": {"system": "ZFN SBS35458", "details": "Cel-I, paired with 35428; 10 and 7% with 35426 in HepG2-C3a (Table 10)"}, "[21]": {"system": "ZFN SBS35480", "details": "Cel-I, paired with 35426"}, "[22]": {"system": "TALEN 102263", "details": "C63, with 102261, HepG2-C3a"}, "[23]": {"system": "TALEN 102257"}, "[24]": {"system": "TALEN 102258"}, "[25]": {"system": "TALEN 102260"}, "[26]": {"system": "ZFN SBS33940", "details": "HepG2-C3a, paired with 34931"}, "[27]": {"system": "TALEN 102251", "details": "C17, with 102249, HepG2-C3a"}, "[28]": {"system": "TALEN 102249"}, "[29]": {"system": "TALEN 102250"}, "[30]": {"system": "TALEN 102271", "details": "C17, with 102269, HepG2-C3a"}, "[31]": {"system": "TALEN 102261", "details": "C63, with 102264, HepG2-C3a"}, "[32]": {"system": "ZFN SBS35426", "details": "Cel-I, paired with 35480"}, "[33]": {"system": "ZFN SBS35428", "details": "Cel-I, paired with 35480"}, "[34]": {"system": "ZFN SBS35361", "details": "Cel-I, paired with 35396; 31 and 29% in HepG2-C3a (Table 10)"}, "[35]": {"system": "ZFN SBS35364", "details": "Cel-I, paired with 35394"}, "[36]": {"system": "ZFN SBS35370", "details": "Cel-I, paired with 35405"}, "[37]": {"system": "ZFN SBS35379", "details": "Cel-I, paired with 35393"}, "[38]": {"system": "TALEN 102269", "details": "C17, with 102271, HepG2-C3a"}}}
{"sequence": "ACCAAGAAGACAGACTAAAATGAAAATA (double strand) [34931 site]", "values": [{"measurement": "activity (% modification)", "setting": "[1]", "result": 7.3}]}
{"sequence": "ATAAAGCATAGTGCAATGG (double strand) [102256 site]", "values": [{"measurement": "activity (% modification)", "setting": "[2]; C17, with 102254, HepG2-C3a", "result": 28}, {"measurement": "activity (% modification)", "setting": "[2]; C63, with 102253, HepG2-C3a", "result": 23}]}
{"sequence": "ATAAAGCATAGTGCAATGGAT (double strand) [102255 site]", "values": [{"measurement": "activity (% modification)", "setting": "[3]; C17, with 102254, HepG2-C3a", "result": 43}, {"measurement": "activity (% modification)", "setting": "[3]; C63, with 102253, HepG2-C3a", "result": 21}]}
{"sequence": "ATAATTGAACATCATCCTG (double strand) [102265 site]", "values": [{"measurement": "activity (% modification)", "setting": "[4]; C17, with 102267, HepG2-C3a", "result": 47}, {"measurement": "activity (% modification)", "setting": "[4]; C63, with 102267, HepG2-C3a", "result": 9.8}]}
{"sequence": "ATAATTGAACATCATCCTGAG (double strand) [102266 site]", "values": [{"measurement": "activity (% modification)", "setting": "[5]", "result": 10}]}
{"sequence": "ATAGTGCAATGGATAGGTC (double strand) [102252 site]", "values": [{"measurement": "activity (% modification)", "setting": "[6]; C17, with 102250, HepG2-C3a", "result": 32}, {"measurement": "activity (% modification)", "setting": "[6]; C63, with 102249, HepG2-C3a", "result": 8.3}]}
{"sequence": "ATATTGGGCTCTGATTCCT (double strand) [102268 site]", "values": [{"measurement": "activity (% modification)", "setting": "[7]; C17, with 102266, HepG2-C3a", "result": 10}, {"measurement": "activity (% modification)", "setting": "[7]; C63, with 102265, HepG2-C3a", "result": 7.9}]}
{"sequence": "ATATTGGGCTCTGATTCCTAC (double strand) [102267 site]", "values": [{"measurement": "activity (% modification)", "setting": "[8]; C17, with 102265, HepG2-C3a", "result": 47}, {"measurement": "activity (% modification)", "setting": "[8]; C63, with 102265, HepG2-C3a", "result": 9.8}]}
{"sequence": "ATCTAATACTCTTTTAGTGTC (double strand) [102264 site]", "values": [{"measurement": "activity (% modification)", "setting": "[9]", "result": 22}]}
{"sequence": "ATTGAATTCATAACTATCC (double strand) [102253 site]", "values": [{"measurement": "activity (% modification)", "setting": "[10]; C17, with 102255, HepG2-C3a", "result": 38}, {"measurement": "activity (% modification)", "setting": "[10]; C63, with 102256, HepG2-C3a", "result": 23}]}
{"sequence": "ATTGAATTCATAACTATCCCA (double strand) [102254 site]", "values": [{"measurement": "activity (% modification)", "setting": "[11]; C17, with 102255, HepG2-C3a", "result": 43}, {"measurement": "activity (% modification)", "setting": "[11]; C63, with 102256, HepG2-C3a", "result": 16}]}
{"sequence": "ATTTATGAGATCAACAGCACA (double strand) [102259 site]", "values": [{"measurement": "activity (% modification)", "setting": "[12]; C17, with 102257, HepG2-C3a", "result": 18}, {"measurement": "activity (% modification)", "setting": "[12]; C63, with 102257, HepG2-C3a", "result": 15}]}
{"sequence": "ATTTTAGTCTGTCTTCTTG (double strand) [102262 site]", "values": [{"measurement": "activity (% modification)", "setting": "[13]", "result": 17}]}
{"sequence": "CCTATCCATTGCACTATGCTTTATTTAA (double strand) [locus 2 right site]", "values": [{"measurement": "activity (% mutated targets)", "setting": "[14]", "result": 21}, {"measurement": "activity (% mutated targets)", "setting": "[15]", "result": 24}, {"measurement": "activity (% mutated targets)", "setting": "[16]", "result": 25}, {"measurement": "activity (% mutated targets)", "setting": "[17]", "result": 22}, {"measurement": "activity (% mutated targets)", "setting": "[18]", "result": 23}, {"measurement": "activity (% mutated targets)", "setting": "[19]", "result": 23}]}
{"sequence": "CCTGTGCTGTTGATCTCATAAATAGAAC (double strand) [locus 3 right site]", "values": [{"measurement": "activity (% mutated targets)", "setting": "[20]", "result": 4.9}, {"measurement": "activity (% mutated targets)", "setting": "[21]", "result": 7}]}
{"sequence": "CTAATACTCTTTTAGTGTCT (double strand) [102263 site]", "values": [{"measurement": "activity (% modification)", "setting": "[22]", "result": 16}]}
{"sequence": "CTATGCTTTATTTAAAAAC (double strand) [102257 site]", "values": [{"measurement": "activity (% modification)", "setting": "[23]; C17, with 102259, HepG2-C3a", "result": 18}, {"measurement": "activity (% modification)", "setting": "[23]; C63, with 102259, HepG2-C3a", "result": 15}]}
{"sequence": "CTATGCTTTATTTAAAAACCA (double strand) [102258 site]", "values": [{"measurement": "activity (% modification)", "setting": "[24]; C17, with 102260, HepG2-C3a", "result": 24}, {"measurement": "activity (% modification)", "setting": "[24]; C63, with 102260, HepG2-C3a", "result": 11}]}
{"sequence": "CTATTTATGAGATCAACAGCA (double strand) [102260 site]", "values": [{"measurement": "activity (% modification)", "setting": "[25]; C17, with 102258, HepG2-C3a", "result": 24}, {"measurement": "activity (% modification)", "setting": "[25]; C63, with 102257, HepG2-C3a", "result": 13}]}
{"sequence": "CTGTTGATAGACACTAAAAGAGTATTAG (double strand) [33940 site]", "values": [{"measurement": "activity (% modification)", "setting": "[26]", "result": 7.3}]}
{"sequence": "GTGCAATGGATAGGTCTTT (double strand) [102251 site]", "values": [{"measurement": "activity (% modification)", "setting": "[27]", "result": 15}]}
{"sequence": "GTTGAAGATTGAATTCATA (double strand) [102249 site]", "values": [{"measurement": "activity (% modification)", "setting": "[28]; C17, with 102251, HepG2-C3a", "result": 15}, {"measurement": "activity (% modification)", "setting": "[28]; C63, with 102252, HepG2-C3a", "result": 8.3}]}
{"sequence": "GTTGAAGATTGAATTCATAAC (double strand) [102250 site]", "values": [{"measurement": "activity (% modification)", "setting": "[29]; C17, with 102252, HepG2-C3a", "result": 32}, {"measurement": "activity (% modification)", "setting": "[29]; C63, with 102252, HepG2-C3a", "result": 8}]}
{"sequence": "TTATGCATTTGTTTCAAAA (double strand) [102271 site]", "values": [{"measurement": "activity (% modification)", "setting": "[30]", "result": 14}]}
{"sequence": "TTCATTTTAGTCTGTCTTCTT (double strand) [102261 site]", "values": [{"measurement": "activity (% modification)", "setting": "[31]", "result": 22}]}
{"sequence": "TTGTGGTTTTTAAATAAAGCATAGTGCA (double strand) [locus 3 left site]", "values": [{"measurement": "activity (% mutated targets)", "setting": "[32]", "result": 7}, {"measurement": "activity (% mutated targets)", "setting": "[33]", "result": 6}]}
{"sequence": "TTTGGGATAGTTATGAATTCAATCTTCA (double strand) [locus 2 left site]", "values": [{"measurement": "activity (% mutated targets)", "setting": "[34]", "result": 25}, {"measurement": "activity (% mutated targets)", "setting": "[35]", "result": 24}, {"measurement": "activity (% mutated targets)", "setting": "[36]", "result": 23}, {"measurement": "activity (% mutated targets)", "setting": "[37]", "result": 21}]}
{"sequence": "TTTTTCTGTAGGAATCAGA (double strand) [102269 site]", "values": [{"measurement": "activity (% modification)", "setting": "[38]", "result": 14}]}
